{"source": "paper PMC4192059", "about": "(Molecular microbiology, 2014)", "binders": {"B1": {"name": "PE25 (M. tuberculosis), chain of the crystallized complex (natural protein)", "chain": "MSFVITNPEALTVAATEVRRIRDRAIQSDAQVAPMTTAVRPPAADLVSEKAATFLVEYARKYRQTIAAAAVVLEEFAHALTTGADKYATAEADNIKTFS"}}, "target": "T1, PPE41 (M. tuberculosis), chain of the crystallized complex (M. tuberculosis, UniProt Q79FE1 1-194)", "T1 sequence": "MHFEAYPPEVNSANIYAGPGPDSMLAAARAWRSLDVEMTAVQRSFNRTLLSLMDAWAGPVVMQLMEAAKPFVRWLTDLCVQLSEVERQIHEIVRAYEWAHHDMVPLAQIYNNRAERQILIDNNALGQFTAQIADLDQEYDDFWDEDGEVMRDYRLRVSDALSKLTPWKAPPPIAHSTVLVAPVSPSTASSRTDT", "assay": "crystal structure", "data": [{"binder": "B1", "values": [{"measurement": "binding result", "result": "binds"}]}]}
